By Kd is commonly meant the equilibrium constant for the complex coming apart. The low end stands for higher affinity, the high end for lower affinity.

Settings in all cases: both partners purified
Assay [1] addresses T1, SES-2 (single epitope scaffold 2).
T1 construct: also called SES-2 scaffold; source: FreeStyle 293F cells, transfected, purified (nickel column, Superdex 200 Increase gel filtration)
The assay can be described thus: SPR.

The next assay has as its target T2, J3 junctional peptide (Plasmodium falciparum (identical to 3D7 …)).
T2 construct: also called junctional peptide (J3)
T2 chain: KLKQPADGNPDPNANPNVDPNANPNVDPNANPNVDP
The assay can be described thus: ELISA; plates coated with peptide at 2 ug/mL in PBS; antibodies diluted fourfold from 10 ug/mL; peroxidase secondary antibody. (An ELISA detects its analyte on a solid surface through an enzyme-linked reagent.)

For assay [2], the target named is TES-1 (triple-epitope scaffold 1) (synthetic de novo design (grafts PfCSP …)). The assay can be described thus: KinExA (kinetic exclusion assay).

B1: L9 Fab (Fab, V domains shown)
VH: QVKLVESGGGVVQPGRSLRLSCEASGFIFSTYGMHWVRQAPGKGLEWVAVIWFDGSNIYYADSVKGRFTISRDNSKNTVFMQMDSLRAEDTAVYYCHRNFYDGSGPFDYWGQGTLVTVSS
VL: DIQMTQSPSTLSASVGDRVTITCRASQFISRWLAWYQQKPGKAPKLLIYKASSLESGVPSRFSGSGSETHFTLTISSLQPDDVATYYCQEYTSYGRTFGQGTKVEIK
notes: source: for crystallization: ExpiCHO cells, purified (HiTrap Protein G HP, size exclusion chromatography)
In assay [1], B1 registered a dissociation constant (Kd) of 29 nM.

B2: Monoclonal antibody L9 (human IgG) (antibody, V domains shown)
VH: QVKLVESGGGVVQPGRSLRLSCEASGFIFSTYGMHWVRQAPGKGLEWVAVIWFDGSNIYYADSVKGRFTISRDNSKNTVFMQMDSLRAEDTAVYYCHRNFYDGSGPFDYWGQGTLVTVSS
VL: DIQMTQSPSTLSASVGDRVTITCRASQFISRWLAWYQQKPGKAPKLLIYKASSLESGVPSRFSGSGSETHFTLTISSLQPDDVATYYCQEYTSYGRTFGQGTKVEIK
With B2, the binding result in the assay with J3 junctional peptide was “binds”. Also, in assay [2], binding was put at a Kd of 0.085 nM.

(Values after publication PMC13079917 (Proceedings of the National Academy of Sciences of the …, 2026).)
